Results on 2 molecules are retold here after publication PMC9650030, “The RNA repair proteins RtcAB regulate transcription activator RtcR via its CRISPR-associated Rossmann fold domain” (iScience, 2022).

Test [1] concerns the target MBP-RtcR (wild-type, full-length RtcR N-terminally tagged with maltose binding protein) (Escherichia coli) (UniProt P38035). Briefly: MST; RED-NHS-labelled MBP-RtcRWT or RtcR_(ΔCARF) (diluted to 50 nM, mixed with an equal volume) against a serial dilution of RtcA or RtcB; 24°C; modified PBS (250 mM NaCl) with 0.05% Tween-20; fitted with the Hill equation.
For test [2], the target named is T1, MBP-RtcR (wild-type, full-length RtcR N-terminally tagged with maltose binding protein) (Escherichia coli, UniProt P38035 1-532, labelled with Monolith RED-NHS 2nd Generation dye (amine reactive) in the MST experiments only).
T1 construct: also called RtcRWT; MBP-RtcRWT; not shown: MBP, N-terminal, kept
T1 sequence (looked up): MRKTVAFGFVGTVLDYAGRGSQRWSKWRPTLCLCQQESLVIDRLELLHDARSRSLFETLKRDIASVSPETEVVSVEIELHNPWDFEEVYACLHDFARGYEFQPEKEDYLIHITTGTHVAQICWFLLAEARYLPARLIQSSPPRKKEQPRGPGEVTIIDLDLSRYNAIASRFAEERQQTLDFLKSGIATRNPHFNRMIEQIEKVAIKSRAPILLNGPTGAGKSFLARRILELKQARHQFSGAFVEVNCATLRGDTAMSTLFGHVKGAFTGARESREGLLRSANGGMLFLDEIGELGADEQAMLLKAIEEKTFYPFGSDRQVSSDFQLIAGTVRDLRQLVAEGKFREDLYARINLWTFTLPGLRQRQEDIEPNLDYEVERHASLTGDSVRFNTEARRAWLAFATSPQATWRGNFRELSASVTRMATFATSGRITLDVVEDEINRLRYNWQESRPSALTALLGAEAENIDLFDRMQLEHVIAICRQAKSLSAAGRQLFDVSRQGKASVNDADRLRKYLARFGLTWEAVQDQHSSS
The test is described as above. Conditions: both partners purified.

Consider “His-RtcB (N-terminal his-tagged RNA ligase RtcB) (from UniProt P46850 1-408) (enzyme)”, for which the Kd in test [1] came out at 14.5 µM.

B1: His-RtcA (N-terminal his-tagged RNA 3'-terminal phosphate cyclase RtcA) (enzyme, Escherichia coli, UniProt P46849 1-338, looked up)
chain: MKRMIALDGAQGEGGGQILRSALSLSMITGQPFTITSIRAGRAKPGLLRQHLTAVKAATEICGATVEGAELGSQRLLFRPGTVRGGDYRFAIGSAGSCTLVLQTVLPALWFADGPSRVEVSGGTDNPSAPPADFIRRVLEPLLAKIGIHQQTTLLRHGFYPAGGGVVATEVSPVASFNTLQLGERGNIVQMRGEVLLAGVPRHVAEREIATLAGSFSLHEQNIHNLPRDQGPGNTVSLEVESENITERFFVVGEKRVSAEVVAAQLVKEVKRYLASTAAVGEYLADQLVLPMALAGAGEFTVAHPSCHLLTNIAVVERFLPVRFSLIETDGVTRVSIE
notes: RtcA, RNA 3'-terminal phosphate cyclase, Escherichia coli; not shown: His tag, N-terminal, kept
For the molecule B1, the Kd in test [2] is roughly 5 µM.
